System: disulfide cyclized peptide Mpa-Tyr-II-Pro-Mea

In the case of thrombin, the “thrombin activity in screen at compound concentration of around 10 µM (fluorogenic substrate)” value is reported as “reduced the thrombin activity 52%”.

Source: US20240279845
